Measured values published in article doi:10.1101/2022.11.04.515170, “Insights into cargo sorting by SNX32 in neuronal and non-neuronal cells: physiological implications in neurite outgrowth” (bioRxiv, 2022).
Substitutions are numbered along the chain they refer to. Names may count otherwise.

Key:
Settings in all cases: partners not purified
GFP-SNX4 S448R = molecular target: T1, GFP-SNX4 S448R (UniProt O95219 1-450, S448R); assay: co-IP; GST-GFP nanobody (GBP) on glutathione Sepharose beads, 2 h at 4°C with HeLa cell lysate overexpressing GFP-SNX4 (WT or mutant) and HA-SNX32 (WT or mutant); immunoblot anti-GFP and anti-HA
T1 construct: Sorting nexin 4 (SNX4) with S448R in the BAR domain, by site directed mutagenesis of GFP-tagged SNX4; also called pEGFP SNX4S448R; source: HeLa, transfected, overexpressed, in lysate
T1 sequence (looked up): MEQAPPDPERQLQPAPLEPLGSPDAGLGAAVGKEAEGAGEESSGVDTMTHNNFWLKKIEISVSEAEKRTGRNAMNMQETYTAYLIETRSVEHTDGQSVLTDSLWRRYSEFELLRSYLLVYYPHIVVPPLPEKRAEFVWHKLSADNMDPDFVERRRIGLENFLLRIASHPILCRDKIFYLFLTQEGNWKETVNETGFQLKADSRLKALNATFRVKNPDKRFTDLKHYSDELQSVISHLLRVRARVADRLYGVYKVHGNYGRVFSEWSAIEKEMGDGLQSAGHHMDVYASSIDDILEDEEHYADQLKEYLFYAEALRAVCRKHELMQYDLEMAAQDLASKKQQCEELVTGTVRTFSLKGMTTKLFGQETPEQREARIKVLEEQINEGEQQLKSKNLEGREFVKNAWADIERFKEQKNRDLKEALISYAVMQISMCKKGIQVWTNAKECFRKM

GFP-SNX4 Y258E = molecular target: T2, GFP-SNX4 Y258E (UniProt O95219 1-450, Y258E); assay: as above
T2 construct: Sorting nexin 4 (SNX4) with Y258E in the BAR domain, by site directed mutagenesis of GFP-tagged SNX4; also called pEGFP SNX4Y258E; source: HeLa, transfected, overexpressed, in lysate
T2 sequence (looked up): T1 sequence (looked up) with Y258E, R448S

GFP-SNX1 = molecular target: T3, GFP-SNX1 (UniProt Q13596 1-522); assay: co-IP; GST-GFP nanobody (GBP) on glutathione Sepharose beads, 2 h at 4°C with HEK293T cell lysate overexpressing GFP-tagged and HA-tagged SNX proteins; washed with PBS; immunoblot anti-GFP and anti-HA
T3 construct: Sorting nexin 1 (SNX1); pEGFP C1 SNX1, gift from Prof Peter J Cullen; also called GFP-SNX1 WT; source: HEK293T or HeLa, transfected, overexpressed, in lysate

GFP-SNX8 = molecular target: T4, GFP-SNX8 (UniProt Q9Y5X2 1-465); assay: as above
T4 construct: Sorting nexin 8 (SNX8); source: HEK293T, transfected, overexpressed, in lysate
T4 sequence (looked up): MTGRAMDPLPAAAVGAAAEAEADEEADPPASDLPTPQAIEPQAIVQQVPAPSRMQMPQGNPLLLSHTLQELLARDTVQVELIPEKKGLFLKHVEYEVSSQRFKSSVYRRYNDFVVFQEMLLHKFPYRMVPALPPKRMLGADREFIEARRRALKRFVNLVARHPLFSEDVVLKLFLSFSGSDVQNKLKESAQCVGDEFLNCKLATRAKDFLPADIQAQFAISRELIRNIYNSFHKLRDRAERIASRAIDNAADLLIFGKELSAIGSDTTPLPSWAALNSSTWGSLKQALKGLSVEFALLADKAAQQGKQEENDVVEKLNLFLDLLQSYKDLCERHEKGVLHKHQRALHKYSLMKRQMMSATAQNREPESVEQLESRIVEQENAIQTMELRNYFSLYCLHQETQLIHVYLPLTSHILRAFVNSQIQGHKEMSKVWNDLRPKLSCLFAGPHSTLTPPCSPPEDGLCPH

GFP-SNX32 WT = molecular target: T5, GFP-SNX32 WT (UniProt Q86XE0 1-403); assay: as above
T5 construct: Sorting nexin 32 (SNX32), full length; pEGFP C1 SNX32 FL, gift from Prof Peter J Cullen; also called GFP-SNX32 wild type; GFP-tagged SNX32; source: HEK293T or HeLa, transiently transfected, in lysate; SH-SY5Y, lentivirally transduced, stably expressing, in lysate
T5 sequence (looked up): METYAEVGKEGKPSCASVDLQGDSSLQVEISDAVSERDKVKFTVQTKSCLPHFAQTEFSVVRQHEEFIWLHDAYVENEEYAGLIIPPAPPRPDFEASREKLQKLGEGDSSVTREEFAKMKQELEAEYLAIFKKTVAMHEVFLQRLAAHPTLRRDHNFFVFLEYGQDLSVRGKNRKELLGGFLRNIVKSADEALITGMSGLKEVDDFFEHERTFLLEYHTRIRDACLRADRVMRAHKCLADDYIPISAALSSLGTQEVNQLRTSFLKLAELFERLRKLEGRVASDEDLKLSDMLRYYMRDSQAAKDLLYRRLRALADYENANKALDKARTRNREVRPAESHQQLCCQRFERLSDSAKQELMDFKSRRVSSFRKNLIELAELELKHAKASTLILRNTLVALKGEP

GFP-SNX4 = molecular target: T6, GFP-SNX4 (UniProt O95219 1-450); assay: co-IP; GST-GFP nanobody (GBP) on glutathione Sepharose beads, 2 h at 4°C with HeLa cell lysate overexpressing GFP-SNX4 (WT or mutant) and HA-SNX32 (WT or mutant); immunoblot anti-GFP and anti-HA
T6 construct: Sorting nexin 4 (SNX4); pEGFP C1 SNX4, gift from Prof Peter J Cullen; also called GFP-SNX4 WT; source: HEK293T or HeLa, transfected, overexpressed, in lysate
T6 sequence (looked up): T1 sequence (looked up) with R448S

T3 sequence (Q13596 whole entry): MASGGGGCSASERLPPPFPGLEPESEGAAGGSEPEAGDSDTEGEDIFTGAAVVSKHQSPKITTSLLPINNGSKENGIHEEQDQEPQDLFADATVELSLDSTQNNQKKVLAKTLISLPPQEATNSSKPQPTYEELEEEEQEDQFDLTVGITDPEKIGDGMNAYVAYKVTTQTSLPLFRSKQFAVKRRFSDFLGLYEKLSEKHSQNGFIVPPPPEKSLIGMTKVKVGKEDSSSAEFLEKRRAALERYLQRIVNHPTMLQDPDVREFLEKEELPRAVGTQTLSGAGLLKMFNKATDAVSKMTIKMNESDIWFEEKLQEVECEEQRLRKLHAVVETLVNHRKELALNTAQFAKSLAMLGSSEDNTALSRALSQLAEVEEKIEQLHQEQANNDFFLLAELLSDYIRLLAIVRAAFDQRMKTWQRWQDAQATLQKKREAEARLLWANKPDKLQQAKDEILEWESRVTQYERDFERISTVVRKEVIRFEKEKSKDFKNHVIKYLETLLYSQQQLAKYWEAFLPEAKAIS

B1: HA-SNX32 FL (natural protein, UniProt Q86XE0 1-403, looked up)
chain: T5 sequence (looked up)
notes: Sorting nexin 32 (SNX32), full length (FL); pcDNA3 HA N(I) SNX32 FL, subcloned from pEGFP C1 SNX32 FL; also called HA-SNX32 WT; Sorting nexin 32; source: HEK293T or HeLa, transfected, overexpressed, in lysate
- ratio of HA to GFP band intensity (GFP-SNX4 S448R): 0.23
- ratio of HA to GFP band intensity (GFP-SNX4 Y258E): 0.33
- ratio of HA to GFP band intensity (GFP-SNX1): 0.98
- ratio of HA to GFP band intensity (GFP-SNX8): 0.62
- ratio of HA to GFP band intensity (GFP-SNX32 WT): 0.85

B2: HA-SNX32 E256R (natural protein, UniProt Q86XE0 1-403, looked up)
chain: T5 sequence (looked up) with E256R
notes: SNX32 with E256R, by site directed mutagenesis of HA-tagged SNX32; source: HeLa, transfected, overexpressed, in lysate
- ratio of HA to GFP band intensity (GFP-SNX4): 0.66

B3: HA-SNX32 Q259R (natural protein, UniProt Q86XE0 1-403, looked up)
chain: T5 sequence (looked up) with Q259R
notes: SNX32 with Q259R, by site directed mutagenesis of HA-tagged SNX32; source: HeLa, transfected, overexpressed, in lysate
- ratio of HA to GFP band intensity (GFP-SNX4): 0.75

B4: HA-SNX32 R220E (natural protein, UniProt Q86XE0 1-403, looked up)
chain: T5 sequence (looked up) with R220E
notes: SNX32 with R220E, by site directed mutagenesis of HA-tagged SNX32; source: HeLa, transfected, overexpressed, in lysate
- ratio of HA to GFP band intensity (GFP-SNX4): 1.02

B5: HA-SNX32 R366E (natural protein, UniProt Q86XE0 1-403, looked up)
chain: T5 sequence (looked up) with R366E
notes: SNX32 with R366E, by site directed mutagenesis of HA-tagged SNX32; source: HeLa, transfected, overexpressed, in lysate
- ratio of HA to GFP band intensity (GFP-SNX4): 0.49
